# Reference: patent US20260001928A1 (CORTERIA PHARMACEUTICALS, priority 2022, published 2026)
# *1 amine or outer side, *2 acyl side, *3 side chain or, on linkers, in order; H or OH if unused. Where no end group is shown, it is not given here. Side-chain parts run from the residue outwards. [ ]: non-standard residue; d: D form. The star is where a group is joined. C18 diacid = O=C(O)CCCCCCCCCCCCCCCCC(=O)*; γGlu = O=C(O)[C@H](CCC(=O)[*:2])N[*:1]; C12 diacid = O=C(O)CCCCCCCCCCC(=O)*; NMeI = CC[C@H](C)[C@H](NC)C(=O)O; Api = NC1(C(=O)O)CCNCC1; Aib = CC(C)(N)C(=O)O
# T1: CRF1R receptor (UniProt P34998 24-415, limits assumed)
# T1 sequence (looked up): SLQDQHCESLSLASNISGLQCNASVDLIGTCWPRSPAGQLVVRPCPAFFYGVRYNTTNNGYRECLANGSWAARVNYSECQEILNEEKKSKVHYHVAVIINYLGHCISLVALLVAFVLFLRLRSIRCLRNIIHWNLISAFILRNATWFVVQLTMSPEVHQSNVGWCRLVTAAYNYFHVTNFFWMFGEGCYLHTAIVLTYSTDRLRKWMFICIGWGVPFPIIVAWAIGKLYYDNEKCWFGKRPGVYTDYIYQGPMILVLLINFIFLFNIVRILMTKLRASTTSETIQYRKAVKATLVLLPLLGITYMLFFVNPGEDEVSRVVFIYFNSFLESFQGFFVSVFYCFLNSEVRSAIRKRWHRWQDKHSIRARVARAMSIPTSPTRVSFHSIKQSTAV
# B1: SEQ ID NO 190 (peptide)
# peptide: Ac-IVLSLD[dV]PIKLK([γGlu-C18 diacid])KILLEQEKQK[Aib]QREQAETN[Aib]QILAQV-NH2
# SMILES: CC[C@H](C)[C@H](NC(C)=O)C(=O)N[C@H](C(=O)N[C@@H](CC(C)C)C(=O)N[C@@H](CO)C(=O)N[C@@H](CC(C)C)C(=O)N[C@@H](CC(=O)O)C(=O)N[C@@H](C(=O)N1CCC[C@H]1C(=O)N[C@H](C(=O)N[C@@H](CCCCN)C(=O)N[C@@H](CC(C)C)C(=O)N[C@@H](CCCCNC(=O)CC[C@H](NC(=O)CCCCCCCCCCCCCCCCC(=O)O)C(=O)O)C(=O)N[C@@H](CCCCN)C(=O)N[C@H](C(=O)N[C@@H](CC(C)C)C(=O)N[C@@H](CC(C)C)C(=O)N[C@@H](CCC(=O)O)C(=O)N[C@@H](CCC(N)=O)C(=O)N[C@@H](CCC(=O)O)C(=O)N[C@@H](CCCCN)C(=O)N[C@@H](CCC(N)=O)C(=O)N[C@@H](CCCCN)C(=O)NC(C)(C)C(=O)N[C@@H](CCC(N)=O)C(=O)N[C@@H](CCCNC(=N)N)C(=O)N[C@@H](CCC(=O)O)C(=O)N[C@@H](CCC(N)=O)C(=O)N[C@@H](C)C(=O)N[C@@H](CCC(=O)O)C(=O)N[C@H](C(=O)N[C@@H](CC(N)=O)C(=O)NC(C)(C)C(=O)N[C@@H](CCC(N)=O)C(=O)N[C@H](C(=O)N[C@@H](CC(C)C)C(=O)N[C@@H](C)C(=O)N[C@@H](CCC(N)=O)C(=O)N[C@H](C(N)=O)C(C)C)[C@@H](C)CC)[C@@H](C)O)[C@@H](C)CC)[C@@H](C)CC)C(C)C)C(C)C
# B2: SEQ ID NO 186 (peptide)
# peptide: [NMeI]VLSLD[dV]PIKLK([γGlu-C12 diacid])KILLEQEKQKKQREQAETN[Aib]QILAQV-NH2
# modifications: N-terminus assumed
# SMILES: CC[C@H](C)[C@H](NC)C(=O)N[C@H](C(=O)N[C@@H](CC(C)C)C(=O)N[C@@H](CO)C(=O)N[C@@H](CC(C)C)C(=O)N[C@@H](CC(=O)O)C(=O)N[C@@H](C(=O)N1CCC[C@H]1C(=O)N[C@H](C(=O)N[C@@H](CCCCN)C(=O)N[C@@H](CC(C)C)C(=O)N[C@@H](CCCCNC(=O)CC[C@H](NC(=O)CCCCCCCCCCC(=O)O)C(=O)O)C(=O)N[C@@H](CCCCN)C(=O)N[C@H](C(=O)N[C@@H](CC(C)C)C(=O)N[C@@H](CC(C)C)C(=O)N[C@@H](CCC(=O)O)C(=O)N[C@@H](CCC(N)=O)C(=O)N[C@@H](CCC(=O)O)C(=O)N[C@@H](CCCCN)C(=O)N[C@@H](CCC(N)=O)C(=O)N[C@@H](CCCCN)C(=O)N[C@@H](CCCCN)C(=O)N[C@@H](CCC(N)=O)C(=O)N[C@@H](CCCNC(=N)N)C(=O)N[C@@H](CCC(=O)O)C(=O)N[C@@H](CCC(N)=O)C(=O)N[C@@H](C)C(=O)N[C@@H](CCC(=O)O)C(=O)N[C@H](C(=O)N[C@@H](CC(N)=O)C(=O)NC(C)(C)C(=O)N[C@@H](CCC(N)=O)C(=O)N[C@H](C(=O)N[C@@H](CC(C)C)C(=O)N[C@@H](C)C(=O)N[C@@H](CCC(N)=O)C(=O)N[C@H](C(N)=O)C(C)C)[C@@H](C)CC)[C@@H](C)O)[C@@H](C)CC)[C@@H](C)CC)C(C)C)C(C)C
# B3: SEQ ID NO 189 (peptide)
# peptide: Ac-IVLSLD[dV]PIKLK([γGlu-C18 diacid])KILLEQEKQKAQREQAETN[Aib]QILAQV-NH2
# SMILES: CC[C@H](C)[C@H](NC(C)=O)C(=O)N[C@H](C(=O)N[C@@H](CC(C)C)C(=O)N[C@@H](CO)C(=O)N[C@@H](CC(C)C)C(=O)N[C@@H](CC(=O)O)C(=O)N[C@@H](C(=O)N1CCC[C@H]1C(=O)N[C@H](C(=O)N[C@@H](CCCCN)C(=O)N[C@@H](CC(C)C)C(=O)N[C@@H](CCCCNC(=O)CC[C@H](NC(=O)CCCCCCCCCCCCCCCCC(=O)O)C(=O)O)C(=O)N[C@@H](CCCCN)C(=O)N[C@H](C(=O)N[C@@H](CC(C)C)C(=O)N[C@@H](CC(C)C)C(=O)N[C@@H](CCC(=O)O)C(=O)N[C@@H](CCC(N)=O)C(=O)N[C@@H](CCC(=O)O)C(=O)N[C@@H](CCCCN)C(=O)N[C@@H](CCC(N)=O)C(=O)N[C@@H](CCCCN)C(=O)N[C@@H](C)C(=O)N[C@@H](CCC(N)=O)C(=O)N[C@@H](CCCNC(=N)N)C(=O)N[C@@H](CCC(=O)O)C(=O)N[C@@H](CCC(N)=O)C(=O)N[C@@H](C)C(=O)N[C@@H](CCC(=O)O)C(=O)N[C@H](C(=O)N[C@@H](CC(N)=O)C(=O)NC(C)(C)C(=O)N[C@@H](CCC(N)=O)C(=O)N[C@H](C(=O)N[C@@H](CC(C)C)C(=O)N[C@@H](C)C(=O)N[C@@H](CCC(N)=O)C(=O)N[C@H](C(N)=O)C(C)C)[C@@H](C)CC)[C@@H](C)O)[C@@H](C)CC)[C@@H](C)CC)C(C)C)C(C)C
# B4: SEQ ID NO 191 (peptide)
# peptide: Ac-IVLSLD[dV]PIGLK([γGlu-C18 diacid])KILLEQEKQKKQREQAETN[Aib]QILAQV-NH2
# SMILES: CC[C@H](C)[C@H](NC(C)=O)C(=O)N[C@H](C(=O)N[C@@H](CC(C)C)C(=O)N[C@@H](CO)C(=O)N[C@@H](CC(C)C)C(=O)N[C@@H](CC(=O)O)C(=O)N[C@@H](C(=O)N1CCC[C@H]1C(=O)N[C@H](C(=O)NCC(=O)N[C@@H](CC(C)C)C(=O)N[C@@H](CCCCNC(=O)CC[C@H](NC(=O)CCCCCCCCCCCCCCCCC(=O)O)C(=O)O)C(=O)N[C@@H](CCCCN)C(=O)N[C@H](C(=O)N[C@@H](CC(C)C)C(=O)N[C@@H](CC(C)C)C(=O)N[C@@H](CCC(=O)O)C(=O)N[C@@H](CCC(N)=O)C(=O)N[C@@H](CCC(=O)O)C(=O)N[C@@H](CCCCN)C(=O)N[C@@H](CCC(N)=O)C(=O)N[C@@H](CCCCN)C(=O)N[C@@H](CCCCN)C(=O)N[C@@H](CCC(N)=O)C(=O)N[C@@H](CCCNC(=N)N)C(=O)N[C@@H](CCC(=O)O)C(=O)N[C@@H](CCC(N)=O)C(=O)N[C@@H](C)C(=O)N[C@@H](CCC(=O)O)C(=O)N[C@H](C(=O)N[C@@H](CC(N)=O)C(=O)NC(C)(C)C(=O)N[C@@H](CCC(N)=O)C(=O)N[C@H](C(=O)N[C@@H](CC(C)C)C(=O)N[C@@H](C)C(=O)N[C@@H](CCC(N)=O)C(=O)N[C@H](C(N)=O)C(C)C)[C@@H](C)CC)[C@@H](C)O)[C@@H](C)CC)[C@@H](C)CC)C(C)C)C(C)C
# B5: SEQ ID NO 188 (peptide)
# peptide: Ac-IVLSLD[dV]PIKLK([γGlu-C18 diacid])KILLEQEKQK[Aib]QREQAETN[Api]QILAQV-NH2
# SMILES: CC[C@H](C)[C@H](NC(C)=O)C(=O)N[C@H](C(=O)N[C@@H](CC(C)C)C(=O)N[C@@H](CO)C(=O)N[C@@H](CC(C)C)C(=O)N[C@@H](CC(=O)O)C(=O)N[C@@H](C(=O)N1CCC[C@H]1C(=O)N[C@H](C(=O)N[C@@H](CCCCN)C(=O)N[C@@H](CC(C)C)C(=O)N[C@@H](CCCCNC(=O)CC[C@H](NC(=O)CCCCCCCCCCCCCCCCC(=O)O)C(=O)O)C(=O)N[C@@H](CCCCN)C(=O)N[C@H](C(=O)N[C@@H](CC(C)C)C(=O)N[C@@H](CC(C)C)C(=O)N[C@@H](CCC(=O)O)C(=O)N[C@@H](CCC(N)=O)C(=O)N[C@@H](CCC(=O)O)C(=O)N[C@@H](CCCCN)C(=O)N[C@@H](CCC(N)=O)C(=O)N[C@@H](CCCCN)C(=O)NC(C)(C)C(=O)N[C@@H](CCC(N)=O)C(=O)N[C@@H](CCCNC(=N)N)C(=O)N[C@@H](CCC(=O)O)C(=O)N[C@@H](CCC(N)=O)C(=O)N[C@@H](C)C(=O)N[C@@H](CCC(=O)O)C(=O)N[C@H](C(=O)N[C@@H](CC(N)=O)C(=O)NC1(C(=O)N[C@@H](CCC(N)=O)C(=O)N[C@H](C(=O)N[C@@H](CC(C)C)C(=O)N[C@@H](C)C(=O)N[C@@H](CCC(N)=O)C(=O)N[C@H](C(N)=O)C(C)C)[C@@H](C)CC)CCNCC1)[C@@H](C)O)[C@@H](C)CC)[C@@H](C)CC)C(C)C)C(C)C
# B6: SEQ ID NO 187 (peptide)
# peptide: Ac-IVLSLD[dV]PIKLK([γGlu-C18 diacid])KILLEQEKQKAQREQAETN[Api]QILAQV-NH2
# SMILES: CC[C@H](C)[C@H](NC(C)=O)C(=O)N[C@H](C(=O)N[C@@H](CC(C)C)C(=O)N[C@@H](CO)C(=O)N[C@@H](CC(C)C)C(=O)N[C@@H](CC(=O)O)C(=O)N[C@@H](C(=O)N1CCC[C@H]1C(=O)N[C@H](C(=O)N[C@@H](CCCCN)C(=O)N[C@@H](CC(C)C)C(=O)N[C@@H](CCCCNC(=O)CC[C@H](NC(=O)CCCCCCCCCCCCCCCCC(=O)O)C(=O)O)C(=O)N[C@@H](CCCCN)C(=O)N[C@H](C(=O)N[C@@H](CC(C)C)C(=O)N[C@@H](CC(C)C)C(=O)N[C@@H](CCC(=O)O)C(=O)N[C@@H](CCC(N)=O)C(=O)N[C@@H](CCC(=O)O)C(=O)N[C@@H](CCCCN)C(=O)N[C@@H](CCC(N)=O)C(=O)N[C@@H](CCCCN)C(=O)N[C@@H](C)C(=O)N[C@@H](CCC(N)=O)C(=O)N[C@@H](CCCNC(=N)N)C(=O)N[C@@H](CCC(=O)O)C(=O)N[C@@H](CCC(N)=O)C(=O)N[C@@H](C)C(=O)N[C@@H](CCC(=O)O)C(=O)N[C@H](C(=O)N[C@@H](CC(N)=O)C(=O)NC1(C(=O)N[C@@H](CCC(N)=O)C(=O)N[C@H](C(=O)N[C@@H](CC(C)C)C(=O)N[C@@H](C)C(=O)N[C@@H](CCC(N)=O)C(=O)N[C@H](C(N)=O)C(C)C)[C@@H](C)CC)CCNCC1)[C@@H](C)O)[C@@H](C)CC)[C@@H](C)CC)C(C)C)C(C)C
# Molecular target: human corticotropin-releasing factor 2a (CRF2a receptor) (human), Q13324
# Sequence (Q13324 20-411): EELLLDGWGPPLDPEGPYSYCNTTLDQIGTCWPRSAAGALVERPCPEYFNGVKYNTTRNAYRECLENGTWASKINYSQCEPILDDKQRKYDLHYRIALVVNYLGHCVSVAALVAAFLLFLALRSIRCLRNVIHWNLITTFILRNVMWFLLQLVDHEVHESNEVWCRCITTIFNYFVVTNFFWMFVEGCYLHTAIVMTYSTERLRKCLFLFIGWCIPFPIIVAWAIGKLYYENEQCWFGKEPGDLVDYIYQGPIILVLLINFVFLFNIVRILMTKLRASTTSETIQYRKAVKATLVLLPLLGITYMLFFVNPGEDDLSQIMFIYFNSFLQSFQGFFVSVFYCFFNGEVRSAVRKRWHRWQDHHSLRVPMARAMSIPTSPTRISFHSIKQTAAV
# Assay: cell-based or functional assay
row,EC50 [nM] (cAMP),Binder
1,0.3 nM,B1
2,0.79 nM,B2
3,0.29 nM,B3
4,0.18 nM,B4
5,0.28 nM,B5
6,0.26 nM,B6

# Molecular target: T1, CRF1R receptor
# Assay: cell-based or functional assay
Emax (% I),EC50,Binder
9%,,B1
2%,,B2
9%,,B3
54%,92.9 nM,B4
32%,,B5
37%,195 nM,B6
